The record followed here is paper doi:10.1101/2023.12.15.571532 (bioRxiv, 2023).

The data set deals with the molecule itself. Kind of data set: native gel or EMSA. For orientation: Mobility shift assays separate free from complexed probe on a gel.

B1: RelF antitoxin, recombinant His-tagged (natural protein)
chain: MRILPISTIKGKLNEFVDAVSSTQDQITITKNGAPAAVLVGADEWESLQETLYWLAQPGIRESIAEADADIASGRTYGEDEIRAEFGVPRRPH
Take B1: the stoichiometry N (as a rule, a count of units in the complex or per binding partner) turned out to be 4.

B2: RelB antitoxin, recombinant His-tagged (natural protein)
chain: MAVVPLGEVRNRLSEYVAEVELTHERITITRHGHPAAVLISADDLASIEETLEVLRTPGASEAIREGLADVAAGRFVSNDEIRNRYTAR
Consider B2, for which the binding result is given as “binds”.

B3: RelJ antitoxin, recombinant His-tagged (natural protein)
chain: MSISASEARQRLFPLIEQVNTDHQPVRITSRAGDAVLMSADDYDAWQETVYLLRSPENARRLMEAVARDKAGHSAFTKSVDELREMAGGEE
Take B3: the “stoichiometry N” value worked out at 4.
